Measurements reported in PMC9508356.

Target: biotinylated SARS-CoV-2 spike protein subdomain 1 (S1) (SARS-CoV-2) (UniProt P0DTC2)
Assay: BLI

Substance | Kd [µM] | koff [s⁻¹] | kon [M⁻¹ s⁻¹]
recombinant human albumin ACE2 genetic fusion with wild type albumin sequence (WT-ACE2) (from UniProt Q9BYF1-1 18-740) | 0.0328 | 0.00028 | 7860
recombinant human albumin ACE2 genetic fusion with FcRn null-binding albumin sequence (NB-ACE2) (from UniProt Q9BYF1-1 18-740) | 0.0317 | 0.000209 | 9640
